Measured values taken from US20190284293A1, “COMBINATION THERAPY WITH ANTI-CD73 ANTIBODIES” (BRISTOL-MYERS SQUIBB COMPANY, priority 2016, published 2019).
Substitutions are numbered along the chain they refer to.

T1: CD32a-H131 (FcgRIIa-H131) (Homo sapiens, UniProt P12318)
T1 sequence (P12318 34-217 limits assumed): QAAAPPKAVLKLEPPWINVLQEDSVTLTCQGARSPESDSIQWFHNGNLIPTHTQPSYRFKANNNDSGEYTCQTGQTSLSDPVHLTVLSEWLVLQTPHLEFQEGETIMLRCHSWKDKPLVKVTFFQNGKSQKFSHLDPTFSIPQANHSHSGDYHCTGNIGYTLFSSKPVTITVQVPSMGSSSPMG

T2: CD32a-R131 (FcgRIIa-R131) (Homo sapiens, UniProt P12318, H167R)
T2 sequence (P12318 34-217 H167R limits assumed): T1 sequence (P12318 34-217 limits assumed) with H134R

T3: CD32b (FcgRIIb) (Homo sapiens, UniProt P31994)
T3 sequence (P31994 43-310): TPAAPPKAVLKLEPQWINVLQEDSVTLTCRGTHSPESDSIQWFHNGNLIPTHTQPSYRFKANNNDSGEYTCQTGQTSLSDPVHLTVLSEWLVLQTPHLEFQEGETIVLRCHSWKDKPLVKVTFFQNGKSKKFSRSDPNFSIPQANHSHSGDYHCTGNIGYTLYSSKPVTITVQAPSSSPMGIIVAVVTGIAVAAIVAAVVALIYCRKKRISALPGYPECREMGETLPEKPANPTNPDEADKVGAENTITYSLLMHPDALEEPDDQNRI

B1: mAb10-IgG2.3G1-AY-V27 (protein)
constant: ASTKGPSVFPLAPCSRSTSESTAALGCLVKDYFPEPVTVSWNSGALTSGVHTFPAVLQSSGLYSLSSVVTVPSSNFGTQTYTCNVDHKPSNTKVDKTVERKSCVECPPCPAPELLGGPSVFLFPPKPKDTLMISRTPEVTCVVVDVEHEDPEVKFNWYVDGVEVHNAKTKPREEQYNSTYRVVSVLTVLHQDWLNGKEYKCKVSNKALPAPIEKTISKAKGQPREPQVYTLPPSREEMTKNQVSLTCLVKGFYPSDIAVEWESNGQPENNYKTTPPVLDSDGSFFLYSKLTVDKSRWQQGNVFSCSVMHEALHNHYTQKSLSLSPGK
modifications: left off: another chain or arm of the molecule
B2: mAb11-IgG2.3 (protein)
constant: ASTKGPSVFPLAPCSRSTSESTAALGCLVKDYFPEPVTVSWNSGALTSGVHTFPAVLQSSGLYSLSSVVTVPSSNFGTQTYTCNVDHKPSNTKVDKTVERKSCVECPPCPAPPVAGPSVFLFPPKPKDTLMISRTPEVTCVVVDVSHEDPEVQFNWYVDGVEVHNAKTKPREEQFNSTFRVVSVLTVVHQDWLNGKEYKCKVSNKGLPAPIEKTISKTKGQPREPQVYTLPPSREEMTKNQVSLTCLVKGFYPSDIAVEWESNGQPENNYKTTPPMLDSDGSFFLYSKLTVDKSRWQQGNVFSCSVMHEALHNHYTQKSLSLSPGK
modifications: left off: another chain or arm of the molecule
B3: mAb12-IgG2.5 (protein)
constant: B2 constant with C14S, S102C
modifications: left off: another chain or arm of the molecule
B4: mAb10-IgG2.5 (protein)
constant: B2 constant with C14S, S102C
modifications: left off: another chain or arm of the molecule
B5: mAb6-IgG2.3 (protein)
constant: B2 constant
modifications: left off: another chain or arm of the molecule
B6: mAb4-IgG2.3 (protein)
constant: B2 constant
modifications: left off: another chain or arm of the molecule
B7: mAb8-IgG2.3G1-AY-V27 (protein)
constant: B1 constant
modifications: left off: another chain or arm of the molecule

Biological target: CD16a-V158 (FcgRIIIa-V158) (Homo sapiens, UniProt P08637, F176V)
Assay: SPR, antibody binding to anti-his Fab captured FcgR-his (% Rmax)
Settings: 1 μM antibody
Description: (§1) The binding of antibodies to Fc gamma receptors (FcγRs or FcgRs) was studied using biosensor technologies including Biacore surface plasmon resonance (SPR) and Fortebio Biolayer Interferometry (BLI). SPR studies were performed on a Biacore T100 instrument (GE Healthcare) at 25° C. The Fab fragment from a murine anti-6×His antibody was immobilized on a CM5 sensor chip using EDC/NHS to a density of −3000 RU. Various his-tagged FcgRs (7 ug/ml) were captured via the C-terminal his-tag using a contact time of 30 s at 10 ul/min, and the binding of 1.0 μM antibody was evaluated in a running buffer of 10 mM NaPO4, 130 mM NaCl, 0.05% p20 (PBS-T) pH 7.1. FcgRs used for these experiments included CD64 (FcgRI), CD32a-H131 (FcgRIIa-H131), CD32a-R131 (FcgRIIa-R131), CD32b (FcgRIIb), CD16a-V158 (FcgRIIIa-V158), CD16b-NA1 (FcgRIIIb-NA1), and CD16B-NA2 (FcgRIIIb-NA2). BLI experiments were performed on a Fortebio Octet RED instrument (Pall, Fortebio) at 25° C. in 10 mM NaPO4, 130 mM NaCl, 0.05% p20 (PBS-T) pH 7.1. Antibodies were captured out of undiluted expression supernatants on protein A coated sensors, followed by the binding of 1 μM hCD32a-H131, hCD32a-R131, hCD32b, hCD16a-V158, or 0.1 μM hCD64 analytes.

CD16a-V158 (FcgRIIIa-V158), sequence (P08637 17-208 F176V limits assumed): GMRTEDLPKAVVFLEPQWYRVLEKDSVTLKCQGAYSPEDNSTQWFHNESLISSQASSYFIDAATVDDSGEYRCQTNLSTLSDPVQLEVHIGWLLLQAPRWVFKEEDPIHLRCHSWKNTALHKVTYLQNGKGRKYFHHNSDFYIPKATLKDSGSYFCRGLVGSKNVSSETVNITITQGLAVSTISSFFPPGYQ

Row | % Rmax hCD16a-V158 [%] | Molecule
1 | 12 | B1
2 | 1 | B2
3 | 1 | B3
4 | 1 | B4
5 | 1 | B5
6 | 1 | B6

Biological target: CD16B-NA2 (FcgRIIIb-NA2) (Homo sapiens, UniProt O75015)
Assay: as above
Settings: 1 μM antibody
Description: as §1

CD16B-NA2 (FcgRIIIb-NA2), sequence (O75015 17-200 limits assumed): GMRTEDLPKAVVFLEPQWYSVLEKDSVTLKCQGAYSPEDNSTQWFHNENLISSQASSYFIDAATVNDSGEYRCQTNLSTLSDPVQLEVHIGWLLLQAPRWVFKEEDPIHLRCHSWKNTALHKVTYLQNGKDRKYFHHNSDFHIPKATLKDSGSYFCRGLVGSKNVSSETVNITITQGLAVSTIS

Row | % Rmax hCD16B-NA2 [%] | Molecule
7 | 7 | B7
8 | 3 | B1
9 | 0 | B2
10 | 0 | B3
11 | 0 | B4
12 | 0 | B5
13 | 0 | B6

Biological target: T1, CD32a-H131 (FcgRIIa-H131)
Assay: as above
Settings: 1 μM antibody
Description: as §1

Row | % Rmax hCD32a-H131 [%] | Molecule
14 | 67 | B7
15 | 44 | B2
16 | 66 | B5
17 | 39 | B6

Biological target: CD64 (FcgRI) (Homo sapiens, UniProt P12314)
Assay: as above
Settings: 1 μM antibody
Description: as §1

CD64 (FcgRI), sequence (P12314 16-374): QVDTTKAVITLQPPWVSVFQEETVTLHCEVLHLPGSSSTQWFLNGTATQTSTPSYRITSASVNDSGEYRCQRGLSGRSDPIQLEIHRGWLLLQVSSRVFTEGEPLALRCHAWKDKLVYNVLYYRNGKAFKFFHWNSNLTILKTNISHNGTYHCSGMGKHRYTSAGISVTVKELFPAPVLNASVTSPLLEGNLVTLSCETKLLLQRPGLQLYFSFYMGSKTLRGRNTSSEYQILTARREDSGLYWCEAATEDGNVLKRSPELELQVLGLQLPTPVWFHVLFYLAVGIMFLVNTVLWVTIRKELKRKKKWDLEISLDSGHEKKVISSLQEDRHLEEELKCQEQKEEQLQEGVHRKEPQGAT

Row | % Rmax hCD64 [%] | Molecule
18 | 78 | B7
19 | 69 | B1
20 | 2 | B2
21 | 1 | B3
22 | 1 | B4
23 | 3 | B5
24 | 1 | B6

Biological target: T2, CD32a-R131 (FcgRIIa-R131)
Assay: as above
Settings: 1 μM antibody
Description: as §1

Row | % Rmax hCD32a-R131 [%] | Molecule
25 | 80 | B7
26 | 57 | B1
27 | 17 | B2
28 | 6 | B3
29 | 5 | B4
30 | 14 | B5
31 | 6 | B6

Biological target: T3, CD32b (FcgRIIb)
Assay: as above
Settings: 1 μM antibody
Description: as §1

Row | % Rmax hCD32b [%] | Molecule
32 | 67 | B7
33 | 40 | B1
34 | 5 | B2
35 | 1 | B3
36 | 1 | B4
37 | 3 | B5
38 | 1 | B6
